Here are results for one substance from doi:10.1101/848226.

The test addresses mCherry-CARACB(G15V) (barley (Hordeum vulgare)). Description: FRET or BRET.

For GFP-RIC157 (natural protein), the GFP lifetime stood at 2.2 ns.
